Source: paper PMC12086512 (Protein Science : A Publication of the Protein Society, 2025)

T1: p67C^1 (p67 residues 572-612) (Theileria parva, UniProt Q4MZ78)
T1 chain: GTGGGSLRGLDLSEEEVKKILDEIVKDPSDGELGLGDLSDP


What was measured:
[1] = biological target: full-length p67 of Theileria parva with a C-terminal His-tag (Theileria parva, strain not told, UniProt Q4MZ78); assay: BLI
[2] = biological target: ubiquitin (Homo sapiens (assumed; species not …, UniProt P0CG48); assay: ELISA
[3] = biological target: His-p67C (p67 residues 572-651) (Theileria parva, strain not told, UniProt Q4MZ78); assay: ELISA
[4] = biological target: bovine serum albumin (Bos taurus, UniProt P02769); assay: ELISA
[5] = biological target: T1, p67C^1 (p67 residues 572-612); assay: ELISA
[6] = biological target: the fusion tag (GST) (Schistosoma japonicum (assumed, usual …, UniProt P08515 = GST)); assay: ELISA

Sequence of bovine serum albumin (P02769 25-607): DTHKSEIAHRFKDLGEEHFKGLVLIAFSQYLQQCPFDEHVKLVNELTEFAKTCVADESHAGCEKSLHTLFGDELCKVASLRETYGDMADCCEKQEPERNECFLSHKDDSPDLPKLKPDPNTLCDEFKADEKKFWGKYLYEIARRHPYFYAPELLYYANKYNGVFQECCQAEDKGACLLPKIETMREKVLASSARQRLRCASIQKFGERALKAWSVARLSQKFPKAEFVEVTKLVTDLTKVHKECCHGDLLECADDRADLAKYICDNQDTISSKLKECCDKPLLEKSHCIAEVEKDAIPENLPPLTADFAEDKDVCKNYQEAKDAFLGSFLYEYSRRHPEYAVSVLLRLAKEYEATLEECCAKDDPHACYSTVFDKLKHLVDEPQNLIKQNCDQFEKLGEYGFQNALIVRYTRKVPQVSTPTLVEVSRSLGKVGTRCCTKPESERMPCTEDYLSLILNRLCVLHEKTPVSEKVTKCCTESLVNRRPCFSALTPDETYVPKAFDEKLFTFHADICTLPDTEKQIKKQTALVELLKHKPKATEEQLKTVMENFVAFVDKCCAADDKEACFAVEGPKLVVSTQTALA

Binder | Kd [1] [nM] | binding result [2] | EC50 [3] [nM] | binding result [4] | binding result [5] | binding result [6]
Fab B11 (Fab, V domains shown) VH: EVQLVESGGGLVQPGGSLRLSCAASGFNISSSSIHWVRQAPGKGLEWVASISPYYSSTSYADSVKGRFTISADTSKNTAYLQMNSLRAEDTAVYYCARGPGYAMDYWGQGTLVTVSS VL: DIQMTQSPSSLSASVGDRVTITCRASQSVSSAVAWYQQKPGKAPKLLIYSASSLYSGVPSRFSGSRSGTDFTLTISSLQPEDFATYYCQQYYYAPITFGQGTKVEIK | 79 | no binding | 25 | no binding | binds | –
Fab B11 displayed on phage (Fab, V domains shown) VH: EVQLVESGGGLVQPGGSLRLSCAASGFNISSSSIHWVRQAPGKGLEWVASISPYYSSTSYADSVKGRFTISADTSKNTAYLQMNSLRAEDTAVYYCARGPGYAMDYWGQGTLVTVSS VL: DIQMTQSPSSLSASVGDRVTITCRASQSVSSAVAWYQQKPGKAPKLLIYSASSLYSGVPSRFSGSRSGTDFTLTISSLQPEDFATYYCQQYYYAPITFGQGTKVEIK | – | – | – | – | – | no binding
